Data set [1] concerns CSN6, soluble MPN domain construct of Example 2.
The next data set has as its target Nedd8-AMC (UniProt Q15843).

Chain of CSN6, soluble MPN domain construct of Example 2 (chain, as listed by the source): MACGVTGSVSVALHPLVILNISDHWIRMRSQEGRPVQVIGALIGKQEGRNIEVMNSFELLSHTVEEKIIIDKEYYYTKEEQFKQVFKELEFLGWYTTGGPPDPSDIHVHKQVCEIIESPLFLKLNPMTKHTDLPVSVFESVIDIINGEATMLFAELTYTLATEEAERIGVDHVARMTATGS
Chain of Nedd8-AMC (Q15843 whole entry, looked up): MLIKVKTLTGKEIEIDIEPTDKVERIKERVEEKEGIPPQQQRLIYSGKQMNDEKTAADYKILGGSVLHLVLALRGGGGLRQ
Chain of CSN5 R106T, activatory mutant form, construct of Example 2 (chain, as listed by the source R106T): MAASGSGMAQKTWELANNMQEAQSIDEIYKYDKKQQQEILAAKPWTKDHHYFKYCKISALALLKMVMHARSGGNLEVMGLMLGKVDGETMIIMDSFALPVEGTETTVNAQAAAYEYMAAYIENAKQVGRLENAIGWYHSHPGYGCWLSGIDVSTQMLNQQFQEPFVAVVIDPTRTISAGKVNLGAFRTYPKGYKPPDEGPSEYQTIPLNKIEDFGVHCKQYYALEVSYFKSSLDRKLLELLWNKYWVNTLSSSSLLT
Chain of CSN51-257 R106T (human CSN5 residues 1-257 with Arg106 substituted by threonine) (chain, as listed by the source R106T): as above
Chain of GST-CSN51-257 R106T (GST-tagged human CSN5 residues 1-257 with Arg106 substituted by threonine) (chain, as listed by the source R106T): as above
Chain of CSN5 WT, soluble MPN domain construct of Example 2 (chain, as listed by the source): as the sequence (chain, as listed by the source R106T) above, with T106R counted along it
Chain of CSN51-257 wild type (human CSN5 residues 1-257, GST tag cleaved off) (chain, as listed by the source): as the sequence (chain, as listed by the source R106T) above, with T106R counted along it
Chain of GST-CSN51-257 wild type (GST-tagged human CSN5 residues 1-257) (chain, as listed by the source): as the sequence (chain, as listed by the source R106T) above, with T106R counted along it

Consider “CSN5 R106T, activatory mutant form, construct of Example 2”, for which the “CSN5 isopeptidase activity (substrates LRGG-AMC, Nedd8-AMC, Nedd8-cullin 1)” value in data set [1] is “this effect is consistently more marked in the context of the activatory mutant form of CSN5, CSN5 R106T than the WT form”.

As for “CSN5 WT, soluble MPN domain construct of Example 2”, the “CSN5 isopeptidase activity (substrates LRGG-AMC, Nedd8-AMC, Nedd8-cullin 1)” value in data set [1] is recorded as “CSN6 is able to significantly enhance CSN5 isopeptidase activity”.

Consider “CSN51-257 R106T (human CSN5 residues 1-257 with Arg106 substituted by threonine)”, for which the “isopeptidase activity (hydrolysis of Nedd8-AMC, fluorescence)” value with Nedd8-AMC is “the R106T substitution is sufficient to restore constitutive isopeptidase activity against two isopeptidase substrates, LRGG-AMC and Nedd8-AMC”.

As to “CSN51-257 wild type (human CSN5 residues 1-257, GST tag cleaved off)”, in the data set with Nedd8-AMC, the “isopeptidase activity (hydrolysis of Nedd8-AMC, fluorescence)” value is given as “the CSN51-257 WT form is void of isopeptidase activity”.

Regarding “GST-CSN51-257 R106T (GST-tagged human CSN5 residues 1-257 with Arg106 substituted by threonine)”, in the data set with LRGG-AMC, the “isopeptidase activity (hydrolysis of LRGG-AMC, fluorescence)” value is “the R106T substitution is sufficient to restore constitutive isopeptidase activity against two isopeptidase substrates, LRGG-AMC and Nedd8-AMC”.

Regarding “GST-CSN51-257 wild type (GST-tagged human CSN5 residues 1-257)”, in the data set with LRGG-AMC, the “isopeptidase activity (hydrolysis of LRGG-AMC, fluorescence)” value was “the CSN51-257 WT form is void of isopeptidase activity”.

The record behind these values is US20160083712.
